The source of these data is paper PMC9445180.

As a reminder, the stoichiometry N is a count of units in the complex or per binding partner.

For assay [1], the target named is HTRA2^PD/PDZ-ΔLoopA (human) (UniProt O43464). In words: SEC; HTRA proteins and their LoopA deletion mutants alone; Superdex 200 Increase 3.2/300; 200 mM NaCl, 20 mM HEPES pH 7.5, 0.25% CHAPS; size against gel filtration standard. (In gel filtration, larger molecules generally elute earlier.)
The target of assay [2] is HTRA3^PD/PDZ-ΔLoopA (human) (UniProt P83110). Described as above.

For “HTRA2^PD/PDZ-ΔLoopA (from UniProt O43464 134-458) (domain or fragment)”, in assay [1], the stoichiometry N worked out at 3. Substance “HTRA3^PD/PDZ-ΔLoopA (from UniProt P83110 130-453) (domain or fragment)” yielded a stoichiometry N in assay [2] of 3.
